Data on four molecules can be found in PMC4285296, “A complex gene locus enables xyloglucan utilization in the model saprophyte Cellvibrio japonicus” (Molecular Microbiology, 2014).

One data set deals with T1, CjBgl35A (Cellvibrio japonicus, UniProt B3PBE0).
T1 construct: gene bgl35A; native signal peptide (residues 1-36) excluded; recombinant in E. coli; pET-DEST42 construct with C-terminal tag, or modified pET28a construct with N-terminal His6 tag (crystals); model residues 37-575
Briefly: isothermal titration calorimetry. It is filed as binding.

For another data set, the target named is T2, CjAfc95A (Cellvibrio japonicus, UniProt B3PBE3).
T2 construct: gene afc95A; full-length (no signal peptide predicted); pET-DEST42 construct with C-terminal tag; recombinant in E. coli BL21(DE3), IMAC purified
T2 sequence (B3PBE3 1-782): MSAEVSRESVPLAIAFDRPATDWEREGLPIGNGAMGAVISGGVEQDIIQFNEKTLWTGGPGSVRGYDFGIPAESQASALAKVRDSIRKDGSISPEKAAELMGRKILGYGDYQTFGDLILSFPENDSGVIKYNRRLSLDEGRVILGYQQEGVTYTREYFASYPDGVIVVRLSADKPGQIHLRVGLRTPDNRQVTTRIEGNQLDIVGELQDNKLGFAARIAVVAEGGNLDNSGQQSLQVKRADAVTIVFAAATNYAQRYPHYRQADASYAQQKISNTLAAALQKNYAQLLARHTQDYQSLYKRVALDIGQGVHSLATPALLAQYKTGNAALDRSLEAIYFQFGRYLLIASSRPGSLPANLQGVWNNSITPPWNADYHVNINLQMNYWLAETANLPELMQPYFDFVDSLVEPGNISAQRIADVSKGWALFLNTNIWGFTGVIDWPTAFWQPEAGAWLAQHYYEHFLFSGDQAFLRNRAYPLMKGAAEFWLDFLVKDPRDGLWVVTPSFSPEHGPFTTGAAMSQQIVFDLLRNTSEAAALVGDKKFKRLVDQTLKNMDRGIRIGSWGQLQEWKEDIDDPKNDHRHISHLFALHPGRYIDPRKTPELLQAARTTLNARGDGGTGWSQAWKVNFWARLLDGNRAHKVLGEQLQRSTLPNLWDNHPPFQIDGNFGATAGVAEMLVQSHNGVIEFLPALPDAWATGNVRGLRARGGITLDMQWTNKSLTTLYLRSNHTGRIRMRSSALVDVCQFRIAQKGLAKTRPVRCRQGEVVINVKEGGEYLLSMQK
Briefly: HPAEC-PAD, fucose release. The data set is classed as biochemical. The following applies: 25 °C; pH optimum 6.5; apparent value, substrate preparation was a two-component mixture of XLFG and XXFG. An excerpt:
HPAEC-PAD, fucose release on CjAfc95A

Substrate in data set [1]: C[C@@H]1O[C@@H](Oc2ccc([N+](=O)[O-])cc2Cl)[C@@H](O)[C@H](O)[C@@H]1O
The data set is described as follows: continuous chromogenic assay, 2-chloro-4-nitrophenolate release. It is filed as biochemical, Cellvibrio japonicus. Conditions: 25 °C, pH optimum 6.5 (citrate). An excerpt: continuous chromogenic assay, 2-chloro-4-nitrophenolate release on CjAfc95A

Substrate in the data set “purified protein”: O=[N+]([O-])c1ccc(O[C@@H]2O[C@H](CO)[C@H](O)[C@H](O)[C@H]2O)cc1
Briefly: purified protein. The following applies: 25 °C, pH optimum 5.5 (acetate).

For orientation: Kd means the free concentration of one partner at which half of the binding sites on the other are occupied at equilibrium, for simple one-to-one binding. For `OC[C@H]1NC[C@H](O)[C@@H](O)[C@H]1O` [1-deoxygalactonojirimycin, 1,5-Dideoxy-1,5-imino-D-galactitol], binding at CjBgl35A was put at a Kd of 485 ± 42 nM.

Broadly, the Km is the substrate concentration at which the rate is half of its maximum. Turning to `C[C@@H]1O[C@@H](O[C@H]2[C@H](O[C@H]3[C@@H](OC[C@H]4O[C@@H](O[C@H]5[C@H](O)[C@@H](O)C(O)O[C@@H]5CO)[C@H](O)[C@@H](O)[C@@H]4O[C@@H]4O[C@H](CO[C@H]5OC[C@@H](O)[C@H](O)[C@H]5O[C@@H]5O[C@H](CO)[C@H](O)[C@H](O)[C@H]5O)[C@@H](O[C@@H]5O[C@H](CO[C@H]6OC[C@@H](O)[C@H](O)[C@H]6O)[C@@H](O)[C@H](O)[C@H]5O)[C@H](O)[C@H]4O)OC[C@@H](O)[C@@H]3O)O[C@H](CO)[C@H](O)[C@@H]2O)[C@@H](O)[C@H](O)[C@@H]1O` (some centres unmarked) [XLFG], the Michaelis constant (Km) at CjAfc95A worked out at 210 ± 17 µM.

B1: CjAfc95A (Cellvibrio japonicus Ueda107) (protein)
chain: T2 sequence (B3PBE3 1-782)
notes: full-length (no signal peptide predicted); pET-DEST42 construct with C-terminal tag; recombinant in E. coli BL21(DE3), IMAC purified
Broadly, the kcat is the maximal rate divided by the concentration of active sites. For orientation: kcat/Km means the turnover number divided by the Michaelis constant. In the case of B1, in data set [1], the Km stood at 2100 ± 200 µM, the kcat is 26.5 ± 1.1 s⁻¹ and the kcat/Km turned out to be 12900 M⁻¹ s⁻¹.

B2: CjBgl35A (Cellvibrio japonicus Ueda107) (protein)
chain: APLPELLSNNGKHALMVDGAPYIILGSQTNNSSNYPDALKDVWPSMEKMGANTLSIPVAWEQIEPVEGQFDFSFVDVLLKEARQRKVRLVLLWFATWKNNAPHYAPAWVKLDNARFPRVVKEDGDTLNSLSPLGQNTLAADKKAFVELMKYLAKRDKDHTVIMVQVQNEVGTYGAVRDYSPMAQAVFNAAVPDDLIQKLQLKPGTWSQVFGRDADEFFHAYQIARYCDEVTVAGKAIKNLPMYVNVALRNPFNPGLPGQYSSGGGTDNVLHIWKAAAPNIDLIAPDIYFRDYKTVSKVLELYTRPDNALFVAEIGNDQPFARYLFPTLGKGGIGFSPFGMDDTDYTNYPLGAKVYNDETIEQFAQVYRLVNPMMREWARLSYQGQVWGVAEPLDSTTETQKIWNAEATPEEKEQHKKDRASALTQQLDLGLWDAEVTYGRPMFWVTPPEGNTPAAGGALIAQLDDNEYLVTAYKARVEFKPSQELAGKKFMIERVEEGRFEKGKWVMERVWNGDQTDWGLNFTDRPHLLRVKMASYSVQ
With B2, in the data set “purified protein”, the Km was determined as 810 ± 50 µM, the turnover number (kcat) stood at 10.1 s⁻¹ and the kcat/Km was found to be 12500 M⁻¹ s⁻¹.
